Measurements from patent US20140357844A1 (RINAT NEUROSCIENCE, published 2014).
Values belong to the binder of their own block, whether it stands above or below them.

How the values were obtained:
[1] = target: T1, Trop-2 on Trop-2 expressing tumor cells (human, UniProt P09758 27-323); assay: flow cytometry, A431 cells (Trop-2+++), 1 ug antibody per 300,000 cells
T1 construct: Endogenous Trop-2 of human tumour cell lines; also called Trop-2 positive tumor cells; A431 (Trop-2+++)
T1 sequence: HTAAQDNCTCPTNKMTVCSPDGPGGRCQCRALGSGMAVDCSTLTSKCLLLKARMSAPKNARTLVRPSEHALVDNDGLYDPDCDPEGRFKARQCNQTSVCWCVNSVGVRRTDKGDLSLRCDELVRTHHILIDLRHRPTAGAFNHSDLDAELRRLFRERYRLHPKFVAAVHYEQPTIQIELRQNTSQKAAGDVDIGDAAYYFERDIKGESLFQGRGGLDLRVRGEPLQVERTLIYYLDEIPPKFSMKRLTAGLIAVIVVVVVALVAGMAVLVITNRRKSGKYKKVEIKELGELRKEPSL

[2] = target: T1, Trop-2 on Trop-2 expressing tumor cells; assay: flow cytometry, Colo205 cells (Trop-2+), 1 ug antibody per 300,000 cells
Human Trop-2-mFc protein = target: T2, Human Trop-2-mFc protein (human, UniProt P09758 27-274); assay: SPR (Biacore 2000), human Trop-2-mFc captured by anti-mouse Fc, Fab as analyte
T2 construct: also called huTrop-2; not shown: mouse Fc
T2 sequence: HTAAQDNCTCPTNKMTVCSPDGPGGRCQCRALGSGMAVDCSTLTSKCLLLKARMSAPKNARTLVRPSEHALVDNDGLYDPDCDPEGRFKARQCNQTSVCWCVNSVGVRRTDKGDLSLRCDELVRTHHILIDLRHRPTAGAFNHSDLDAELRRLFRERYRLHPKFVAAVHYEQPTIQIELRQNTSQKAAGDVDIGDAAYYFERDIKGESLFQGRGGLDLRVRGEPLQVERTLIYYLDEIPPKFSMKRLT

[3] = target: T3, Monomeric Trop-2 extracellular domain prepared from papain digestion of Trop-2-Fc fusion protein (human, UniProt P09758 27-274); assay: SPR (Biacore), mouse IgG captured by anti-mouse IgG, monomeric Trop-2 ECD as analyte
T3 construct: also called huTrop-2
T3 sequence: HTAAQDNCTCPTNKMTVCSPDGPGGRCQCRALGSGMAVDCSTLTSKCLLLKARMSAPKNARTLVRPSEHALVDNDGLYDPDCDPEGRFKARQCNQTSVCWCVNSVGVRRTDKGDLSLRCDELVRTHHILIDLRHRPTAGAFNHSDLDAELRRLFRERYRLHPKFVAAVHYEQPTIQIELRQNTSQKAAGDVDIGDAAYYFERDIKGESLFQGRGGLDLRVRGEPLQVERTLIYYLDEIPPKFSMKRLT
Procedure: The affinities of anti-Trop-2 mouse antibodies generated from hybridomas were measured on a surface plasmon resonance Biacore™ 2000 or 3000 biosensor equipped with a research-grade CM5 sensor chip (Biacore™ AB, Uppsala, Sweden—now GE Healthcare). Anti-mouse IgG was first amine coupled to the CM5 sensor surface. Various anti-Trop-2 mouse IgGs were then captured by anti-mouse IgG. Monomeric Trop-2 extracellular domain prepared from papain digestion of Trop-2-Fc fusion protein was then injected as the analyte at 3 fold dilution series.

[4] = target: T1, Trop-2 on Trop-2 expressing tumor cells; assay: flow cytometry, Colo205 cells (Trop-2+), 1 ug antibody per 300,000 cells; remark: listed apart in the source
[5] = target: T1, Trop-2 on Trop-2 expressing tumor cells; assay: flow cytometry, A431 cells (Trop-2+++), 0.5 ug antibody per 200,000 cells
Procedure: For A431 cell staining, 200,000 cells were incubated with 0.5 ug antibody in 100 uL binding buffer (PBS (Phosphate Buffered Saline)+0.5% BSA (Bovine Serum Albumin)), followed by incubation with Dylight488-conjugated goat anti-human (Fab′)-2-specific secondary antibody from Jackson immunoresearch Laboratories (West Grove, Pa.).

% positive [1]: 99.9%
MFI [1]: 20300
% positive [2]: 100%
MFI [2]: 2060
B4: h6G11_FKG_SF antibody (human IgG1) (antibody, V domains shown)
VH: QVQLVQSGAEVKKPGASVKVSCKASGYTFTSYWINWVRQAPGQGLEWMGNIFPSDSYSNYNKKFKDRVTMTRDTSTSTVYMELSSLRSEDTAVYYCARGSGFDYWGQGTLVTVSS
VL: EIVLTQSPATLSLSPGERATLSCRASQTIGTSIHWYQQKPGQAPRLLIYYASESISGIPARFSGSGSGTDFTLTISSLEPEDFAVYYCSQSFSWPFTFGQGTKLEIK

Kd [3]: 31.8 nM
koff [3]: 0.0086 s⁻¹
kon [3]: 270000 M⁻¹ s⁻¹
B5: anti-Trop-2 mouse antibody 6G11 (antibody, mouse IgG2a, V domains shown)
VH: QVQLQQPGAELVRPGASVKLSCKASGYTFTSYWINWVKQRPGHGLEWIGNIYPSDSYSNYNQKFKDKATLTVDKSSSTAYMQVSSPTSEDSAVYYCTYGSSFDYWGQGTTVTVSS
VL: DILLTQSPAILSVSPGERVSFSCRASQTIGTSIHWYQQRTNGSPRLLIKYASESISGIPSRFSGSGSGTDFTLSINSVESEDIADYYCQQSNSWPFTFGSGTKLEIK
notes: also called m6G11

% positive [1]: 99.9%
MFI [1]: 16200
% positive [2]: 100%
MFI [2]: 1670
B6: chimeric mouse anti-Trop-2 6G11 antibody (human IgG1) (antibody, V domains shown)
VH: QVQLQQPGAELVRPGASVKLSCKASGYTFTSYWINWVKQRPGHGLEWIGNIYPSDSYSNYNQKFKDKATLTVDKSSSTAYMQVSSPTSEDSAVYYCTYGSSFDYWGQGTTVTVSS
VL: DILLTQSPAILSVSPGERVSFSCRASQTIGTSIHWYQQRTNGSPRLLIKYASESISGIPSRFSGSGSGTDFTLSINSVESEDIADYYCQQSNSWPFTFGSGTKLEIK
notes: Expressed in the human IgG1 subtype; also called mouse 6G11

% positive [4]: 100%
MFI [4]: 2730
% positive [5]: 98.1%
MFI [5]: 128000
B7: h7E6_SVGN antibody (human IgG1) (antibody, V domains shown)
VH: QVQLQESGPGLVKPSETLSLTCTVSGGSISSYGVHWIRQPPGKGLEWIGVIWTSGVTDYNSALMGRVTISVDTSKNQFSLKLSSVTAADTAVYYCARDGDYDRYTMDYWGQGTLVTVSS
VL: DIVMTQSPDSLAVSLGERATINCRASKSVSTSNYSYMHWYQQKPGQPPKLLIYLASNLESGVPDRFSGSGSGTDFTLTISSLQAEDVAVYYCQHSRELPYTFGQGTKLEIK
notes: Human IgG1

More lines, now with the values behind:

B1: h6G11_WT antibody (human IgG1) (antibody, V domains shown)
VH: QVQLVQSGAEVKKPGASVKVSCKASGYTFTSYWINWVRQAPGQGLEWMGNIYPSDSYSNYNQKFKDRVTMTRDTSTSTVYMELSSLRSEDTAVYYCARGSSFDYWGQGTLVTVSS
VL: EIVLTQSPATLSLSPGERATLSCRASQTIGTSIHWYQQKPGQAPRLLIYYASESISGIPARFSGSGSGTDFTLTISSLEPEDFAVYYCQQSNSWPFTFGQGTKLEIK
notes: Human IgG1
% positive [1]: 99.9%
MFI [1]: 19600
% positive [2]: 99%
MFI [2]: 1720

B2: Human 6G11 WT Fab fragment (Fab, V domains shown)
VH: QVQLVQSGAEVKKPGASVKVSCKASGYTFTSYWINWVRQAPGQGLEWMGNIYPSDSYSNYNQKFKDRVTMTRDTSTSTVYMELSSLRSEDTAVYYCARGSSFDYWGQGTLVTVSS
VL: EIVLTQSPATLSLSPGERATLSCRASQTIGTSIHWYQQKPGQAPRLLIYYASESISGIPARFSGSGSGTDFTLTISSLEPEDFAVYYCQQSNSWPFTFGQGTKLEIK
notes: Fab; also called h6G11_WT; h6G11
Kd (Human Trop-2-mFc protein): 27 nM
koff (Human Trop-2-mFc protein): 0.0096 s⁻¹
kon (Human Trop-2-mFc protein): 360000 M⁻¹ s⁻¹

B3: Human 6G11_FKG_SF Fab fragment (Fab, V domains shown)
VH: QVQLVQSGAEVKKPGASVKVSCKASGYTFTSYWINWVRQAPGQGLEWMGNIFPSDSYSNYNKKFKDRVTMTRDTSTSTVYMELSSLRSEDTAVYYCARGSGFDYWGQGTLVTVSS
VL: EIVLTQSPATLSLSPGERATLSCRASQTIGTSIHWYQQKPGQAPRLLIYYASESISGIPARFSGSGSGTDFTLTISSLEPEDFAVYYCSQSFSWPFTFGQGTKLEIK
notes: Fab
Kd (Human Trop-2-mFc protein): 0.6 nM
koff (Human Trop-2-mFc protein): 0.00038 s⁻¹
kon (Human Trop-2-mFc protein): 640000 M⁻¹ s⁻¹
